# Measurements as given in paper PMC10907630.
# Experiments:
# Test in all cases: EMSA
# tau 1N4R, P10636-7 = details: Hill fit, EMSA: 20 nM DNA or nucleosome, 20 mM HEPES pH 7.2, 10 mM NaCl (or 150), 0.5 mM TCEP, 0.1% Tween-20, 5% sucrose, room temperature 20 min, FA: 10 nM DNA, same …
# [1] = tested on: tau ΔPRD-DBR (1N4R) del191-211, P10636-7; details: EMSA: 20 nM DNA or nucleosome, 20 mM HEPES pH 7.2, 10 mM NaCl (or 150), 0.5 mM TCEP, 0.1% Tween-20, 5% sucrose, room temperature 20 min; FA: 10 nM DNA, same …
# Sequence of tau ΔPRD-DBR (1N4R) del191-211, P10636-7 (P10636 other isoform, or with tags, fused parts or gaps mutant): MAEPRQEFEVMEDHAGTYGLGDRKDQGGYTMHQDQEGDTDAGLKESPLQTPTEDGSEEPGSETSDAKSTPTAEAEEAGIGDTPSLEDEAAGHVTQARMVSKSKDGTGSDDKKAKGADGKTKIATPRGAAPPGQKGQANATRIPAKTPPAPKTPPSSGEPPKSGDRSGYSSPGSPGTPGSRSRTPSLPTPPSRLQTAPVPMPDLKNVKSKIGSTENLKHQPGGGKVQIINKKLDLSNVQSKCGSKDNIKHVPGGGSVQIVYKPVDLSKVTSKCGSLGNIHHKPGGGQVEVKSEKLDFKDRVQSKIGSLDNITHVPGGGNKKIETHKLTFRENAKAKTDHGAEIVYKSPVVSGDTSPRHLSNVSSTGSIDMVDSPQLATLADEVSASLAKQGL
# [2] = tested on: PG-ptau (tau 1N4R phosphorylated by PKA and GSK-3β), P10636-7; details: EMSA: 20 nM DNA or nucleosome, 20 mM HEPES pH 7.2, 10 mM NaCl (or 150), 0.5 mM TCEP, 0.1% Tween-20, 5% sucrose, room temperature 20 min, FA: 10 nM DNA, same …
# Sequence of PG-ptau (tau 1N4R phosphorylated by PKA and GSK-3β), P10636-7 (P10636 other isoform, or with tags, fused parts or gaps): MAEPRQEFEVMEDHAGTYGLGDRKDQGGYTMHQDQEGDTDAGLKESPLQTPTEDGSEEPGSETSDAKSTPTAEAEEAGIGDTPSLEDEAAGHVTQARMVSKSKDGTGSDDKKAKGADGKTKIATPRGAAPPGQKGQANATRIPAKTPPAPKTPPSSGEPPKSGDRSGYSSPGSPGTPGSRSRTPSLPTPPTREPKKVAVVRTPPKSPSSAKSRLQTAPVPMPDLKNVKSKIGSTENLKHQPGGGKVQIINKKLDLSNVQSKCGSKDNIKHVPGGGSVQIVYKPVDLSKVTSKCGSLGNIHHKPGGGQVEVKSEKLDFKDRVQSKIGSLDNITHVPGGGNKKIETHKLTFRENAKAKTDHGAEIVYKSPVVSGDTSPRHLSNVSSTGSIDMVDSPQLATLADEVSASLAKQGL
# Sequence of tau 1N4R, P10636-7 (P10636 other isoform, or with tags, fused parts or gaps): as above
sequence,measurement,setting,value
ACTACGCGGCCGCCCTGGAGAATCCCGGTGCCGAGGCCGCTCAATTGGTCGTAGACAGCTCTAGCACCGCTTAAACGCACGTACGCGCTGTCCCCCGCGTTTTAACCGCCAAGGGGATTACTCCCTAGTCTCCAGGCACGTGTCAGATATATACATCCTGTGCATGTAAGATCCAGT (double strand) [177 bp DNA (601)],Kd,"tau 1N4R, P10636-7; 10 mM NaCl",135 nM
same,Kd,"tau 1N4R, P10636-7; 150 mM NaCl",188 nM
same,Kd,[1],410 nM
same,Kd,[2]; 150 mM NaCl (Fig. S12 legend says 10 mM),426 nM
same,Kd,[2],241 nM
CTGGAGAATCCCGGTGCCGAGGCCGCTCAATTGGTCGTAGACAGCTCTAGCACCGCTTAAACGCACGTACGCGCTGTCCCCCGCGTTTTAACCGCCAAGGGGATTACTCCCTAGTCTCCAGGCACGTGTCAGATATATACATCCTGT (double strand) [147 bp mononucleosome (linker-free)],Kd,"tau 1N4R, P10636-7; 10 mM NaCl",83.4 nM
ACTACGCGGCCGCCCTGGAGAATCCCGGTGCCGAGGCCGCTCAATTGGTCGTAGACAGCTCTAGCACCGCTTAAACGCACGTACGCGCTGTCCCCCGCGTTTTAACCGCCAAGGGGATTACTCCCTAGTCTCCAGGCACGTGTCAGATATATACATCCTGTGCATGTAAGATCCAGT (double strand) [177 bp mononucleosome],Kd,"tau 1N4R, P10636-7; 10 mM NaCl",106 nM
same,Kd,[2],166 nM
